Source: patent US8648045B2, “VDAC1 compositions and methods of use thereof for regulating apoptosis” (Ben Gurion University of the Negev Research and Development …, priority 2005, dated 2014)

What was measured:
mitochondrial bound HK-I = biological target: T1, mitochondrial bound HK-I (Rattus norvegicus, UniProt P05708); test: Detachment of mitochondria-bound HK-I; type: biochemical; conditions: peptide N
T1 construct: from tissue; host or cells: rat brain mitochondria
T1 sequence (P05708 1-918): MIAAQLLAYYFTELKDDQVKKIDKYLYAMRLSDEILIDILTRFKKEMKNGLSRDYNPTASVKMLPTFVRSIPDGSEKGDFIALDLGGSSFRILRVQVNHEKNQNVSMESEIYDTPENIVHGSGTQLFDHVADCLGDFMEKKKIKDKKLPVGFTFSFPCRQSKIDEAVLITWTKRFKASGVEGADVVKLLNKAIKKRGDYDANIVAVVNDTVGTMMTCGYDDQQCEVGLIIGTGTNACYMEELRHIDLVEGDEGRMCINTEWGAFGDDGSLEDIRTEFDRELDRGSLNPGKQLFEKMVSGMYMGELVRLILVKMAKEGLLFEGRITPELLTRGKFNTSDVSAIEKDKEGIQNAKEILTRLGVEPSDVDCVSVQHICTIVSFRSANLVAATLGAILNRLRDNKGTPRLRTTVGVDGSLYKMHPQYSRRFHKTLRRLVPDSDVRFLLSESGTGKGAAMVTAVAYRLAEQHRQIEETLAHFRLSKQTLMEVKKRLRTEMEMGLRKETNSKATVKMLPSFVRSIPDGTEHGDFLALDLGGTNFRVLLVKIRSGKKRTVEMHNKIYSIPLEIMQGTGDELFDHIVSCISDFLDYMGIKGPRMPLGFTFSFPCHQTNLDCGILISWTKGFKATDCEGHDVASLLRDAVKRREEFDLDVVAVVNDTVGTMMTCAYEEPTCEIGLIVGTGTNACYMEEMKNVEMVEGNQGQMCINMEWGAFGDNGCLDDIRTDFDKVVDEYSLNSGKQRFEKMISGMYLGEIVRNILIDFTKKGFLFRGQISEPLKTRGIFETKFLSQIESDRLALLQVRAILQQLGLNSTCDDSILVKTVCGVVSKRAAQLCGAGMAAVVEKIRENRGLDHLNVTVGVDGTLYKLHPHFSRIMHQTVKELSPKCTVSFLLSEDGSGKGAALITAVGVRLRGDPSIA

Bcl2 = biological target: T2, Bcl2 (Homo sapiens, UniProt P10415); conditions: expression of peptide N in cells overexpressing Bcl2-GFP; Abu Hamad et al., 2009; cited from earlier work
T2 construct: GFP; expressed in transfected cells

U937 cells = test: HK-I over-expression protection against apoptotic cell death in double-transfected cells; type: cell-based, human; conditions: staurosporine (STS)
Experimental: U937 cells were transfected with pcDNA3.1-HisA or pcDNA3.1-HisA-HK-I (neomycin resistance; provided by Dr. J. E. Wilson, University of Michigan) by electroporation, and grown in complete RPMI 1640 with neomycin ([…]). After 12 days, the selected cells were transfected with pEGFP, pEGFP-mVDAC1 or pEGFP-E72Q-mVDAC1 and were grown in the presence of neomycin ([…]). The viability of double-transfected cells was analyzed during 48 to 76 hr.
The effect of HK-I over-expression on apoptotic cell death of the GFP-tagged version of native and E72Q-mVDAC1 over-expressing cells was examined.
Since VDAC1 overexpression induces cell death, U937 cells (FIG. 4A, 4B) or T-Rex™ 293 human embryonic kidney cells (FIG. 4B) were first transformed to stably over-express HK-I and then transfected with native, E65Q, E72Q, K73L, D77N, N75A, or G67A mutated mVDAC1-GFP. […] This β-loop includes amino acid residues T64 to about N78.

mitochondria = test: Release of cytochrome c from mitochondria; type: biochemical, rat; conditions: HK-I 1 U/ml; Western blot
Experimental: Mitochondria (0.5 mg/ml) were incubated with or without 1 U/ml of HK-I for 20 min in a solution containing 150 mM KCl, 25 mM NaHCO3, 5 mM succinate, 1 mM MgCl2, 3 mM KH2PO4, 20 mM HEPES, pH 7.4. Swelling was monitored after the addition of 200 μM Ca^2+. Following complete swelling, the samples were centrifuged and mitochondrial pellets (25 μg) or supernatant (40 μl) were subjected to SDS-PAGE and Western blot analyses using monoclonal anti-cytochrome C antibodies.
(§1) FIG. 1A: Purified recombinant native or E72Q-mutated mVDAC1 was reconstituted into a PLB (planar lipid bilayer) in symmetrical solutions of 0.5 M NaCl. Currents through VDAC1 channel in response to a voltage step from zero to −20 mV were recorded before and 5 min after the addition of HK-I (28.6 mU/ml). The dashed lines indicate the zero-current level. […] FIG. 1C: Cytochrome c release was assayed, using a monoclonal anti-cytochrome c antibody, in the absence or the presence of HK-I (1 U/ml), chymotrypsin-treated HK-I (1 U/ml) or CsA (10 micro M).
The effects of HK-I are similar to those of the well-known inhibitor of PTP, cyclosporine A (CsA) (FIGS. 1C and 2B).

E72Q-mVDAC1 = biological target: T3, E72Q-mVDAC1 (Mus musculus, UniProt Q60932, E72Q); test: VDAC channel recording in planar lipid bilayer (PLB); type: biochemical; conditions: HK-I 28.6 mU/ml, 5 min; voltage step 0 to −20 mV; 0.5 M NaCl
T3 construct: made in house; host or cells: yeast (purified from mitochondria of yeast expressing mutated mVDAC1)
Experimental: (§2) Native and mutated mVDAC1 were extracted with lauryldimethylamine N-oxide (LDAO) from mitochondria isolated from yeast expressing various VDACs, and purified by chromatography on hydroxyapatite followed by carboxymethyl (CM)-cellulose where LDAO was replaced by β-OG (β-octylglucoside).
(§3) Reconstitution of purified VDAC into a planar lipid bilayer (PLB) multi-channel current recording and data analyses were carried as follows. Briefly, PLB were prepared from soybean asolactin dissolved in n-decane (50 mg/ml) in a chamber containing 10 mM HEPES/KOH pH 7.4 and 0.5 or 1M NaCl (cis/trans). Only PLBs with a resistance greater than 100 GΩ were used. Purified VDAC (about 1 ng) was added to the chamber defined as the cis side. After one or a few channels inserted into the PLB, excess protein was removed by perfusion of the cis chamber with 20 volumes of a solution (with the same composition as before perfusion), in order to prevent further protein incorporation. Currents were recorded under voltage-clamp mode using a Bilayer Clamp amplifier (Warner Instrument, USA). The currents were measured with respect to the trans side of the membrane (ground). The currents were low-pass filtered at 1 kHz, using a Bessal filter (Frequency Devices, USA) and digitized on-line using a Digidata 1200 interface board and pCLAMP 6 software (Axon Instruments). Sigma Plot 2000 scientific software was used for data analyses. Experiments were performed at 23-25° C.
as §1
(§4) RuR, known to interact with several Ca^2+ binding proteins and to inhibit Ca^2+ transport in mitochondria, inhibited channel activity of native but not of E72Q-mutated VDAC1 (FIG. 5E). Purified recombinant native and E72Q-mVDAC1 variant were reconstituted into a planar lipid bilayer (PLB) and the currents produced in response to voltages stepped from a holding potential of 0 mV to −20 mV were recorded. […] The level of inhibition calculated from […] different experiments was 89.2±2.8% (mean±SD, n=9). In contrast, the channel activity of E72Q-mVDAC1 was not inhibited by RuR in all ten experiments.

[1] = biological target: T4, recombinant native mVDAC1 (Mus musculus, UniProt Q60932); test: as above; type: biochemical; conditions: HK-I 28.6 mU/ml, 5 min; voltage step 0 to −20 mV; 0.5 M NaCl
T4 construct: made in house; host or cells: yeast (purified from mitochondria of yeast expressing mVDAC1)
Experimental: as §2, §3, §1, §4

[2] = tested on: permeability transition pore (PTP); test: PTP opening monitored by Ca2+ accumulation and mitochondrial swelling; type: biochemical, rat; conditions: Ca2+ accumulation and swelling of energized mitochondria
Experimental: Ca^2+ uptake by freshly prepared rat liver mitochondria (0.5 mg/ml) was assayed for 1 to 20 minutes at 30° C. in the presence of 225 mM mannitol, 75 mM sucrose, 120 μM CaCl2 (containing 3×10^4 cpm/nmol [^45Ca^2+]), 5 mM HEPES/KOH, 5 mM succinate and 0.1 mM Pi, pH 7.0. Uptake of ^45Ca^2+ was terminated by rapid Millipore filtration followed by a wash with 5 ml of 150 mM KCl.
Ca^2+-induced mitochondria large amplitude swelling was assayed in freshly-prepared mitochondria under the same conditions as for Ca^2+ accumulation, except that the temperature was 24° C. Cyclosporine A (CsA)-sensitive mitochondrial swelling was initiated upon addition of Ca^2+ (0.2 mM) to the sample. Absorbance changes at 520 nm were monitored every 15-20 sec with an Ultraspec 2100 spectrophotometer.
The failure of non-binding species of HK, such as yeast HK, or trypsin- or chymotrypsin-treated HK-I (FIG. 2D) to prevent PTP opening, confirmed the specificity of the HK-I effect, and of the requirement of the HK-I N-terminal region for its interaction with VDAC.
Mitochondrial swelling was assayed in the absence (control ●) or the presence of HK-I (gray ●) and in presence HK-I pre-incubated with peptide LP1. Mitochondrial swelling was assayed as in FIG. 2 in the absence and the presence of peptide LP1 (0.1 mM or 0.3 mM), brain HK-I (0.25 U/ml) or with HK-I pre-incubated for 10 min with LP1. […]

T3 sequence (Q60932 14-296 E72Q limits assumed): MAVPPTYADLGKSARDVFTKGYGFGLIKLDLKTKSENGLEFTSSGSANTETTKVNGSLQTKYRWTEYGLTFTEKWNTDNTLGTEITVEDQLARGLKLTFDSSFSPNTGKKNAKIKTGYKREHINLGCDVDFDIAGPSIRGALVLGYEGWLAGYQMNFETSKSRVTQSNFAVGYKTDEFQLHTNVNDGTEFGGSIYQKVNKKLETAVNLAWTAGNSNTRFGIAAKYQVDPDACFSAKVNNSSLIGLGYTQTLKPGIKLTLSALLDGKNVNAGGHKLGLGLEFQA
T2 sequence (P10415 whole entry, species assumed): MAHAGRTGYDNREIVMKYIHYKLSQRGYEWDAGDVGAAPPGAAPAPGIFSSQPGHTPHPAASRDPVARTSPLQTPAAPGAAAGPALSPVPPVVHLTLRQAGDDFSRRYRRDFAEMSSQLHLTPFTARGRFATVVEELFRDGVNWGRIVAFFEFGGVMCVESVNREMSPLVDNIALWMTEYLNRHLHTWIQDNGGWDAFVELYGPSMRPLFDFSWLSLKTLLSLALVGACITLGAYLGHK
T4 sequence (Q60932 14-296 limits assumed): as the sequence (Q60932 14-296 E72Q limits assumed) above, with Q59E counted along it

effect of HK-I on VDAC1 channel [1] | Molecule | detachment or prevention of HK-1 binding to the mitochondria (mitochondrial bound HK-I) | effect on anti-apoptotic effect of Bcl2 against STS-induced apoptosis (Bcl2) | protection by HK-I over-expression against STS-induced apoptosis (U937 cells) | release of cytochrome c from mitochondria (mitochondria) | effect of HK-I on VDAC1 channel (E72Q-mVDAC1) | prevention of PTP opening [2]
– | MAVPPTYADLGKSARDVFTKGYGFGL [Peptide N, 26 amino acid peptide derived from the N-terminal cytosolic segment of VDAC1, amino acids 1-26] | Detachment or prevention of HK-1 binding to the mitochondria was also demonstrated | reversed the anti-apoptotic effect of BCl2 | – | – | – | –
induces its closure | HK-I: Hexokinase-I, anti-apoptotic mitochondrial protein that binds to VDAC; purified from rat brain or over-expressed recombinant (protein) MIAAQLLAYYFTELKDDQVKKIDKYLYAMRLSDEILIDILTRFKKEMKNGLSRDYNPTASVKMLPTFVRSIPDGSEKGDFIALDLGGSSFRILRVQVNHEKNQNVSMESEIYDTPENIVHGSGTQLFDHVADCLGDFMEKKKIKDKKLPVGFTFSFPCRQSKIDEAVLITWTKRFKASGVEGADVVKLLNKAIKKRGDYDANIVAVVNDTVGTMMTCGYDDQQCEVGLIIGTGTNACYMEELRHIDLVEGDEGRMCINTEWGAFGDDGSLEDIRTEFDRELDRGSLNPGKQLFEKMVSGMYMGELVRLILVKMAKEGLLFEGRITPELLTRGKFNTSDVSAIEKDKEGIQNAKEILTRLGVEPSDVDCVSVQHICTIVSFRSANLVAATLGAILNRLRDNKGTPRLRTTVGVDGSLYKMHPQYSRRFHKTLRRLVPDSDVRFLLSESGTGKGAAMVTAVAYRLAEQHRQIEETLAHFRLSKQTLMEVKKRLRTEMEMGLRKETNSKATVKMLPSFVRSIPDGTEHGDFLALDLGGTNFRVLLVKIRSGKKRTVEMHNKIYSIPLEIMQGTGDELFDHIVSCISDFLDYMGIKGPRMPLGFTFSFPCHQTNLDCGILISWTKGFKATDCEGHDVASLLRDAVKRREEFDLDVVAVVNDTVGTMMTCAYEEPTCEIGLIVGTGTNACYMEEMKNVEMVEGNQGQMCINMEWGAFGDNGCLDDIRTDFDKVVDEYSLNSGKQRFEKMISGMYLGEIVRNILIDFTKKGFLFRGQISEPLKTRGIFETKFLSQIESDRLALLQVRAILQQLGLNSTCDDSILVKTVCGVVSKRAAQLCGAGMAAVVEKIRENRGLDHLNVTVGVDGTLYKLHPHFSRIMHQTVKELSPKCTVSFLLSEDGSGKGAALITAVGVRLRGDPSIA | – | – | protects against apoptosis induced by STS | prevented the release of cytochrome c from mitochondria | able to close native VDAC1 but not mutated E72Q-VDAC1 | inhibited PTP opening
